One block for each molecule: values may come before it.
Assays:
[1] = biological target: Homer1b I332R/I337E (rat); experiment: AUC
Homer1bΔ329 (rat) = experiment: AUC
Homer1b (rat) = experiment: AUC
Shank1CΔPEST = experiment: co-sedimentation
crystal structure = biological target: the molecule itself; experiment: crystal structure

Molecule: Homer1b I332R/I337E (natural protein)
- stoichiometry N [1]: 2 mer

B1: Homer3CC2 (287 – carboxy-terminus of Homer3a) (domain or fragment, human, UniProt Q9NSC5 287-361, looked up)
chain: AAEREETQQKVQDLETRNAELEHQLRAMERSLEEARAERERARAEVGRAAQLLDVSLFELSELREGLARLAEAAP
- binding result (crystal structure): binds

Now from value to molecule:

- stoichiometry N (Homer1bΔ329 (rat)): 2.1 mer
Molecule: Homer1bΔ329 (domain or fragment)

- stoichiometry N (Homer1b (rat)): 4.2 mer
- percent precipitated (Shank1CΔPEST): 50%
- stoichiometry N (Homer:Shank molar ratio) (Shank1CΔPEST): 1
Molecule: Homer1b (natural protein)

Source: publication PMC2680917 (Cell, 2009)
